Data reported in patent US20260250398A1.

Target: FZD/LRP
Test: cell-based or functional assay

- TOPFLASH % Wnt Maxima: 100 % Wnt Maxima
- TOPFLASH EC50: 6 nM
Substance: Wnt3a, recombinantly produced ligand
